Assays:
Assay type in all cases: biochemical
[1] = tested on: PepN 1 A. sojae (COROLASE LAP), non-purified; test: Activity on Glu-pNA and Gln-pNA substrates; settings: 20 mM CPB-Buffer pH 9.0, 45° C., 405 nm
[2] = target: T1, PepN 1 L. helveticus (Lactobacillus helveticus ATCC 12046), purified (Lactobacillus helveticus, UniProt Q10730); test: Activity on Glu-pNA and Gln-pNA substrates; settings: 20 mM CPB-Buffer pH 9.0, 45° C., 405 nm
T1 construct: made in house
T1 sequence (Q10730 1-844): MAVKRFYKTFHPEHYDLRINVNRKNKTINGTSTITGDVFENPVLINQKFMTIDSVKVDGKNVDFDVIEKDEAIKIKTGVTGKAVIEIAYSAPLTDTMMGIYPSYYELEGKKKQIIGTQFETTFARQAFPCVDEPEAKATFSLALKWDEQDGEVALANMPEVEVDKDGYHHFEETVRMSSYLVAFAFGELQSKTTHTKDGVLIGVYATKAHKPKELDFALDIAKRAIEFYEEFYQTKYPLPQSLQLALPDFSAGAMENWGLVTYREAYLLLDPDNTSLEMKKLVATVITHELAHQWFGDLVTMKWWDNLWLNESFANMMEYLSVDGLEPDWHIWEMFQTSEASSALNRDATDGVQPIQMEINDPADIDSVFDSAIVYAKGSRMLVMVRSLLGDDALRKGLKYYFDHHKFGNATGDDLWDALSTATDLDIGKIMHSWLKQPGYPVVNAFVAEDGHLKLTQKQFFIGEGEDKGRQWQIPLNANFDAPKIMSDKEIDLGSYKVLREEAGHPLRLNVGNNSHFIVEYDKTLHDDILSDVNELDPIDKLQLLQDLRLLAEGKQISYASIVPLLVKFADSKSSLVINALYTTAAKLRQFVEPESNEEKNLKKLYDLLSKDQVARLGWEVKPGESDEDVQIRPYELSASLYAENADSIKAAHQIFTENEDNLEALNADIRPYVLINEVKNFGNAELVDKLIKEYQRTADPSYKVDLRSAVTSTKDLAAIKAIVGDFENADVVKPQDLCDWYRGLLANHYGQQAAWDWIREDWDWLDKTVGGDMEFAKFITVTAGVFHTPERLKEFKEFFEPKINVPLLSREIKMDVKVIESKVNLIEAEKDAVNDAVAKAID

[3] = target: T2, Aspergillus clavatus NRRL 1 PepN 2 (aminopeptidase type 2) TRI035, SEQ ID NO: 5 (mature SEQ ID NO: 22) (Aspergillus clavatus, UniProt A1CCU6); test: Activity on Glu-pNA and Gln-pNA substrates; settings: 20 mM CPB-Buffer pH 9.0, 45° C., 405 nm
T2 construct: MEROPS M28.008
T2 sequence (A1CCU6 entry or part of it): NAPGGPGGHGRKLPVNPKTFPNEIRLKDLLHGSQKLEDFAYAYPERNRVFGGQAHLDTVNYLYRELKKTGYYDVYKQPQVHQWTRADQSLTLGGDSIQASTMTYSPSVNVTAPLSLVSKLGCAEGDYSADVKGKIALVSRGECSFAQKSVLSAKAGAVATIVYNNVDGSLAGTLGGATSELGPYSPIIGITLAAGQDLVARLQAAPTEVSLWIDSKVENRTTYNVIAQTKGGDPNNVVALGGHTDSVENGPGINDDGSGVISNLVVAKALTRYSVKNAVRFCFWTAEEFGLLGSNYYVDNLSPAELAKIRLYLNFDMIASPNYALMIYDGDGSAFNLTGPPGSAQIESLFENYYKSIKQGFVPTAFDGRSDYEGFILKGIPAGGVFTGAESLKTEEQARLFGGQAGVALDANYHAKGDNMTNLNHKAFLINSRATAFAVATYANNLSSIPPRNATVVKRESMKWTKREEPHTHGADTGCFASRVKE
Method: (§1) H-Glu-Nitroanilid (pNA) and H-Gln-Nitroanilid (pNA) were used as substrates and the release of p-Nitroanilid (pNA) was measured by absorbance at 405 nm. As buffer 20 mM CPB-Buffer (20 mM Citric acid, 20 mM Na-phosphate, 20 mM Boric acid) pH 9.0 was used. 10 mg H-Glu-pNA and H-Gln-pNA (from BACHEM or Schafer N; Copenhagen, Denmark) were dissolved in 1 ml of DMSO (Dimethyl Sulphoxide from SIGMA; cat # D2650).
(§2) For running the assay 80 μL buffer, 10 μL H-Glu-pNA or H-Gln-pNA substrate and 10 uL appropriately diluted PepN 2 was incubated in Costar assay plate 9017 (Corning Inc.) at 45° C. and measured at 405 nm every 30 sec for 30 min in a VERSAMAX® microplate reader (Molecular Devices) running with SoftMaxPro 5.4.1 software. Activity was determined as the maximal slope of the linear part of the curve determined over 10 time points.

[4] = target: T3, Neosartorya fischeri NRRL 181 PepN 2 (aminopeptidase type 2) TRI031, SEQ ID NO: 1 (mature SEQ ID NO: 18) (Aspergillus fischeri, UniProt A1DJ89); test: Activity on Glu-pNA and Gln-pNA substrates; settings: 20 mM CPB-Buffer pH 9.0, 45° C., 405 nm
T3 construct: MEROPS M28.008
T3 sequence (A1DJ89 entry or part of it): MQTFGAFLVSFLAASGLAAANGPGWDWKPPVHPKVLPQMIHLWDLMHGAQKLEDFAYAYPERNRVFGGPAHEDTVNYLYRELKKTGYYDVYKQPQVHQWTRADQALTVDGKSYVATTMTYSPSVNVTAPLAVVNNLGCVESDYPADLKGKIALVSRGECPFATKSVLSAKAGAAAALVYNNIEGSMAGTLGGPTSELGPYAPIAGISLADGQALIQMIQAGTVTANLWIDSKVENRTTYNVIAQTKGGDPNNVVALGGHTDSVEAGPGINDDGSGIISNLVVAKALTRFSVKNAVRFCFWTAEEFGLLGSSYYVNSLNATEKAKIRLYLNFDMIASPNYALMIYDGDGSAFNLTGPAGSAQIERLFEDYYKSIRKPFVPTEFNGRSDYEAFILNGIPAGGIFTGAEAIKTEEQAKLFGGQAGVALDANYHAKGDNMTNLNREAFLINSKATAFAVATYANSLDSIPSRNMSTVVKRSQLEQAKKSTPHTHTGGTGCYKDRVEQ
Method: as §1, §2

[5] = tested on: peptide TPAAAR (peptide library XPAAAR); test: Hydrolysis of peptide with proline in position 2, LC-MS; settings: within 12 hr; peptide library 1 mg/mL, aminopeptidase 1 ug/mL, 55° C.; FIG. 10
Method: The peptide library XPAAAR (1 mg/mL) (SEQ ID NO:133) was incubated with 1 ug/mL of the aminopeptidase in 3×20 mM CPB-Buffer (20 mM Citric acid, 20 mM Phosphate, 20 mM Boric acid) at 55° C. 50 μL aliquots were stopped with 50 ul 5% TFA at the indicated time points and subjected to LC-MS analysis.
Capillary LC-MS/MS analyses were performed using an Agilent 1100 LC system (Agilent Technologies) interfaced to a LTQ Orbitrap Classic hybrid mass spectrometer (Thermo Scientific, Bremen, Germany). Samples were loaded onto a 15 cm Phenomenex Jupiter 4μ Proteo 90A, C4 analytical column. Separation was performed at a flow rate of 16 μL/min using a 10 min gradient of 0-40% Solvent B H2O/CH3CN/HCOOH (50/950/0.65 v/v/v) into the IONMAX® ion source (Thermo Scientific, San Jose). […] The peptide masses were measured by the Orbitrap (MS scans were obtained with a resolution of 60 000 at m/z 400), and up to 2 of the most intense peptide m/z were selected and subjected to fragmentation using CID in the linear ion trap (LTQ). […]
Label free quantification: The RAW files were accessed with the program Skyline 2.6.0.7176 (MacLean, B., et al., supra) which uses the MS1 intensities to build chromatograms (Schilling, B., et al., supra). […] Peptide sequences of the substrate as well as cleavage products were typed into Skyline and intensities were calculated in each sample. […]

[6] = tested on: whey protein isolate (WPI); test: Degree of hydrolysis of WPI with endopeptidases plus PepN; settings: 50° C., 18 hr
Method: Enzyme activities of PepN 1 Lactobacillus helveticus ATCC® 12046, PepN 1 Aspergillus oryzae and from PepN 2 from Aspergillus clavatus (TRI035) were determined according to Stressler, Eisele et al. (2013, infra). PepN 1 from L. helveticus was expressed and purified as described by Stressler, Eisele et al. (2013, infra).
The PepN 1 and 2 aminopeptidases were standardized to the activity range of 2.5-200 nkat*mL^−1. For protein hydrolyses, 1% (w/wWPI) FOODPRO® Alkaline Protease (DuPont, Brabrand, Denmark) and 1% (w/wWPI) FOODPRO® PNL (DuPont, Brabrand, Denmark) were added to the whey protein isolate suspension (WPI; LACPRODAN® 9224, Arla Ingredients, Viby, Denmark) with an initial pH of 7.0. Following the endopeptidases addition, the WPI was mixed and 200 μL were transferred to each well of a 96-well microtiter plate. The hydrolysis was conducted at 50° C. without pH control and terminated after 18 hr by addition of 20 μL of 2 M TCA. Prior to the determination of the DH (Nielsen, Petersen et al., 2001, infra), all samples were filtered 0.22 μm.

NC(=O)CC[C@H](N)C(=O)Nc1ccc([N+](=O)[O-])cc1 [Gln-pNA, H-Gln-Nitroanilid]
Vmax (Gln-pNA) [1]: 0 mU/min
Vmax (Gln-pNA) [2]: 0 mU/min
Vmax (Gln-pNA) [3]: 98.7 mU/min
Vmax (Gln-pNA) [4]: 75.9 mU/min

N[C@@H](CCC(=O)O)C(=O)Nc1ccc([N+](=O)[O-])cc1 [Glu-pNA, H-Glu-Nitroanilid]
Vmax (Glu-pNA) [1]: 0 mU/min
Vmax (Glu-pNA) [2]: 0.02 mU/min
Vmax (Glu-pNA) [3]: 20.1 mU/min
Vmax (Glu-pNA) [4]: 50.8 mU/min

B1: TRI063 (A. oryzae): leucine aminopeptidase 2 from Aspergillus oryzae RIB40 (NCBI Reference Sequence: XP_001819545.1) (protein, listed as Aspergillus oryzae)
chain: MRSLLWASLLSGVLAGRALVSPDEFPEDIQLEDLLEGSQQLEDFAYAYPERNRVFGGKAHDDTVNYLYEELKKTGYYDVYKQPQVHLWSNADQTLKVGDEEIEAKTMTYSPSVEVTADVAVVKNLGCSEADYPSDVEGKVALIKRGECPFGDKSVLAAKAKAAASIVYNNVAGSMAGTLGAAQSDKGPYSAIVGISLEDGQKLIKLAEAGSVSVDLWVDSKQENRTTYNVVAQTKGGDPNNVVALGGHTDSVEAGPGINDDGSGIISNLVIAKALTQYSVKNAVRFLFWTAEEFGLLGSNYYVSHLNATELNKIRLYLNFDMIASPNYALMIYDGDGSAFNQSGPAGSAQIEKLFEDYYDSIDLPHIPTQFDGRSDYEAFILNGIPSGGLFTGAEGIMSEENASRWGGQAGVAYDANYHAAGDNMTNLNHEAFLINSKATAFAVATYANDLSSIPKRNTTSSLHRRARTMRPFGKRAPKTHAHVSGSGCWHSQVEA
hydrolysis of TPAAAR [5]: no hydrolysis

B2: PepN 1: L. helveticus: PepN 1 from Lactobacillus helveticus ATCC 12046, expressed and purified as described by Stressler, Eisele et al. (2013) (protein, UniProt Q10730 1-844, looked up)
Aminopeptidase N: T1 sequence (Q10730 1-844)
Degree of hydrolysis ([6]; PepN dosage 2.5 nkat/mL in stock solution): 18%
Degree of hydrolysis ([6]; PepN dosage 5 nkat/mL in stock solution): 18%
Degree of hydrolysis ([6]; PepN dosage 10 nkat/mL in stock solution): 20%
Degree of hydrolysis ([6]; PepN dosage 25 nkat/mL in stock solution): 23%
Degree of hydrolysis ([6]; PepN dosage 50 nkat/mL in stock solution): 23%
Degree of hydrolysis ([6]; PepN dosage 75 nkat/mL in stock solution): 24%
Degree of hydrolysis ([6]; PepN dosage 100 nkat/mL in stock solution): 28%
Degree of hydrolysis ([6]; PepN dosage 200 nkat/mL in stock solution): 27%
